Measurements from the supplement of paper PMC7877785.
± gives the uncertainty stated by the source.

Assay: self-splicing fitness, log relative to wild type (ln ratio); higher = more splicing; Tetrahymena group I intron in knt gene, E. coli kanamycin selection, DiMSum; sequences stand for … in CUCUCU…GGAGGGAAAAGUUAUCAGGCAUGCACCUGGUAGCUAGUCUUUAAACCAAUAGAUUGCAUCGGUUUAAAAGGCAAGACCGUCAAAUUGCGGGAAAGGGGUCAACAGCCGUUCAGUACCAAGUCUCAGGGGAAACUUUGAGAUGGCCUUGCAAAGGGUAUGGUAAUAAGCUGACGGACAUGGUCCUAACCACGCAGCCAAGUCCUAAGUCAACAGAUCUUCUGUUGAUAUGGAUGCAGUUCACAGACUAAAUGUCGGUCGGGGAAGAUGUAUUCUUCUCAUAAGAUAUAGUCGGACCUCUCCUUAAUGGGAGCUAGCGGAUGAAGUGAUGCAACACUGGAGCCGCUGGGAACUAAUUUGUAUGCGAAAGUAUAUUGAUUAGUUUUGGAGUACUCGUGGUCG
Outline: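 Fitness was computed with DiMSum as the error-weighted combination of replicate fold changes, kanamycin versus none, each normalised to wild type. The library randomised all eight intron nucleotides of the P1ex region, with the intron placed in the knt kanamycin-resistance gene on pET-22b(+) in E. coli BL21(DE3). Six replicate transformations were grown overnight at 37°C or 30°C on LB agar with or without 25 μg/mL kanamycin, plus 100 μg/mL carbenicillin, 50 μM IPTG and 0.2% rhamnose. Pooled colonies were amplicon-sequenced on an Illumina HiSeq 2500.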

Sequence	self-splicing fitness (ln) (30 °C)	self-splicing fitness (ln) (37 °C)
AAUGAGCAAUAUUACGUCGG	-3.31 ± 0.22	-2.44 ± 0.4
GGGCAGCAAUAUUACGUUAA	-1.19 ± 0.1	-0.46 ± 0.11
UGAGAGCAAUAUUACGUAGU	-2.29 ± 0.24	-2.41 ± 0.36
GUCUAGCAAUAUUACGGGAA	-1.24 ± 0.086	-0.758 ± 0.084
UUGUAGCAAUAUUACGGACC	-2.38 ± 0.25	-1.46 ± 0.34
UGUUAGCAAUAUUACGAUGU	-1.78 ± 0.12	-0.548 ± 0.13
GCCCAGCAAUAUUACGCCUC	-0.831 ± 0.075	0.0191 ± 0.11
AGAGAGCAAUAUUACGCAAA	-2.1 ± 0.32	-2.69 ± 0.48
UGCGAGCAAUAUUACGCACU	-1.68 ± 0.27	-1.66 ± 0.24
CCCGAGCAAUAUUACGAGGU	-3.75 ± 0.15	-3.11 ± 0.17
UAUUAGCAAUAUUACGUAAG	-2.05 ± 0.18	-1.41 ± 0.25
UGGAAGCAAUAUUACGAGCG	0.103 ± 0.11	0.127 ± 0.15
UUACAGCAAUAUUACGAGAU	-2.96 ± 0.25	-1.69 ± 0.24
GGACAGCAAUAUUACGAGCC	-1.49 ± 0.15	-2.56 ± 0.25
GCCUAGCAAUAUUACGAAGC	-2.24 ± 0.13	-2.15 ± 0.19
CUAAAGCAAUAUUACGUCUA	-4.21 ± 0.27	-2.2 ± 0.22
UUUCAGCAAUAUUACGUAAC	-3.2 ± 0.23	-2.4 ± 0.27
CUUUAGCAAUAUUACGCCGU	-2.68 ± 0.41	
GCGAAGCAAUAUUACGUUCA	-1.03 ± 0.13	-0.809 ± 0.16
CCUAAGCAAUAUUACGGGCC	-3.18 ± 0.27	-2.12 ± 0.22
GCUCAGCAAUAUUACGCACC	-1.94 ± 0.23	0.598 ± 0.24
CGGGAGCAAUAUUACGAGCG	-1.78 ± 0.18	-1.19 ± 0.48
GCUUAGCAAUAUUACGGGAG	-2.42 ± 0.18	-1.29 ± 0.18
AUUCAGCAAUAUUACGAUCG	-1.87 ± 0.1	-1.5 ± 0.12

Sequence	self-splicing fitness (ln) (30 °C)	self-splicing fitness (ln) (37 °C)
CUCGAGCAAUAUUACGUGUG	-2.74 ± 0.12	-1.27 ± 0.095
UCUAAGCAAUAUUACGAAUA		-1.52 ± 0.32
AUGCAGCAAUAUUACGCGAG	-3.82 ± 0.17	-0.707 ± 0.11
AGUUAGCAAUAUUACGGCCG	-0.855 ± 0.21	-0.628 ± 0.3
GUCAAGCAAUAUUACGGGCA	-3.61 ± 0.41	-2.97 ± 0.3
UACGAGCAAUAUUACGAGAG	-3.93 ± 0.28	-2.8 ± 0.22
AAUUAGCAAUAUUACGGCGG	-1.81 ± 0.11	-0.193 ± 0.13
AGAUAGCAAUAUUACGGACA	-0.869 ± 0.15	-0.224 ± 0.16
UGUUAGCAAUAUUACGCACU	-0.724 ± 0.1	-0.553 ± 0.12
ACGUAGCAAUAUUACGACGA	0.179 ± 0.11	-0.0557 ± 0.12
UAAUAGCAAUAUUACGAGUA	-2.31 ± 0.14	-0.79 ± 0.11
CCCUAGCAAUAUUACGUAUA	-3.24 ± 0.25	-2.89 ± 0.4
GAUGAGCAAUAUUACGGUCG	-2.37 ± 0.12	-0.405 ± 0.12
CAUUAGCAAUAUUACGCGGG	-1.95 ± 0.3	0.421 ± 0.2
AAUUAGCAAUAUUACGACUU	0.0659 ± 0.11	0.0237 ± 0.14
CUGCAGCAAUAUUACGACAU	-1.04 ± 0.012	-0.363 ± 0.032
CACCAGCAAUAUUACGGAGC	-2.79 ± 0.13	-1.58 ± 0.13
CACGAGCAAUAUUACGUAAU	-3.8 ± 0.39	-2 ± 0.27
GACUAGCAAUAUUACGUAGU	-2.84 ± 0.18	-2.28 ± 0.27
CUACAGCAAUAUUACGAGGG	-3.38 ± 0.19	-2.59 ± 0.2
CCCCAGCAAUAUUACGUCCA	-3.34 ± 0.19	-3.2 ± 0.28
GAACAGCAAUAUUACGUUUA	-0.588 ± 0.07	-0.031 ± 0.078
ACGCAGCAAUAUUACGAAGG	-2.61 ± 0.13	-1.3 ± 0.14
AGCGAGCAAUAUUACGUAUG	-3.68 ± 0.35	-3.3 ± 0.32
